This is an account of results in article PMC4998004, “aPKC Inhibition by Par3 CR3 Flanking Regions Controls Substrate Access and Underpins Apical-Junctional Polarization” (Developmental Cell, 2016).

The Kd is the constant that tells how readily two partners part at equilibrium. Lower therefore signals a tighter complex.

Residues, ends and D or L forms follow the SMILES beside them. No end group written: not given here.

Test [1] addresses T1, PKCιKD-2P (primed human PKC-iota kinase domain) (Homo sapiens, UniProt P41743, C595S).
T1 construct: encoding residues 248–596 (GenBank: NM_002740.5); GST (followed by a 3C protease site) (N, cleaved yes); made in house; host or cells: Hi5 insect cells, baculovirus, co-infected with a PDK-1 virus
T1 sequence (P41743 248-596 C595S): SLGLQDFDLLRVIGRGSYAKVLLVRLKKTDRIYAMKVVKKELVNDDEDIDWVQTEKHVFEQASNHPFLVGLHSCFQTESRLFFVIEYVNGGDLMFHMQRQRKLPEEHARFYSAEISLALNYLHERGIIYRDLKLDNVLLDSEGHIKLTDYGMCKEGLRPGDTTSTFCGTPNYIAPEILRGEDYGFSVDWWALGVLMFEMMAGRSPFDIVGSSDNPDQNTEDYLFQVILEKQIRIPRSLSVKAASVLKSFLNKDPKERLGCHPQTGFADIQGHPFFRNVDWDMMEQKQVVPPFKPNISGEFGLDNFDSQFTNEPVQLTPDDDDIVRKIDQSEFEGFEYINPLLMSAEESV
Put plainly: In vitro kinase assay (ADP Quest), peptide as substrate, Michaelis-Menten kinetics. It counts as biochemical. The note with it: in vitro kinase assay. The protocol: (§1) The ADP Quest kit (DiscoveRx) was used to determine the kcat app and KM app values for ATP against the PKCιKD-1P and PKCιKD-2P using a series of synthetic peptide substrates as described by [Kjaer et al. (2013)]. The reactions were measured every 2 min for 30 min in a 384-well plate using a Safire^2 plate reader (Tecan). The kinetic constants were determined by fitting the data to the Michaelis-Menten equation. Data are represented as mean ± SEM. Fluorescence anisotropy assays were performed to determine the KD for each peptide labeled with a fluorescein tag following standard protocols using a Safire^2 plate reader (Tecan). The anisotropy values were normalized and the KD was determined using non-linear regression. All experiments were performed in triplicate and for at least three independent protein preparations.
The ADP Quest kit (DiscoveRx) was used to determine the kcat app and Km app values for ATP against the PKCι KD-1P and PKCι KD-2P. The assay uses a coupled reaction to convert ADP to a product that has a fluorescence excitation at 530 nm and emission at 590 nm. Several synthetic peptide substrates were used including a model peptide […]
([…]) derived from a PKCε pseudo-substrate sequence with an alanine-serine change. We found this peptide to be an efficient substrate peptide for aPKC isozymes. Peptides from human Par3CR3 (residues 816-835) and F-X-R short […]
peptide ([…]) related to the Nishikawa and co-workers consensus were also used in the study (Nishikawa et al., 1997). For the kcat app and Km app reactions, the ATP concentration ranged from 0-200 µM, while the synthetic peptide substrates were kept constant at 200 µM to avoid product inhibition. The reactions were measured every two minutes for 30 minutes in a 384-well plate using a Safire 2 plate reader (Tecan). The kinetic constants were determined by fitting the data to Michaelis–Menten equation using the graphics program Prism (GraphPad Prism, version 5.0d, GraphPad Software). […]

The target of test [2] is T1, PKCιKD-2P (primed human PKC-iota kinase domain). Kind of test: In vitro kinase assay (ADP Quest), inhibition of phosphorylation of a model substrate peptide. It counts as biochemical. The settings on record: Figures 1C, S5C. The protocol:
as §1, with “All experiments were performed in triplicate and for at least three independent protein preparations.” left out
The ADP Quest kit (DiscoveRx) was used to determine the kcat app and Km app values for ATP against the PKCι KD-1P and PKCι KD-2P. The assay uses a coupled reaction to convert ADP to a product that has a fluorescence excitation at 530 nm and emission at 590 nm. […]
peptide ([…]) related to the Nishikawa and co-workers consensus were also used in the study (Nishikawa et al., 1997). […] The reactions were measured every two minutes for 30 minutes in a 384-well plate using a Safire 2 plate reader (Tecan). The kinetic constants were determined by fitting the data to Michaelis–Menten equation using the graphics program Prism (GraphPad Prism, version 5.0d, GraphPad Software). […]

Test [3] addresses PKCι kinase domain, 248-596 (UniProt P41743). Kind of test: fluorescence anisotropy, fluorescein-labelled peptide. The settings on record: reference: unphosphorylated Par3CR3 peptide; sites S827. (Fluorescence polarisation rises when a labelled molecule tumbles more slowly, as on binding a larger partner.)
Another test deals with Par6-PKCι-Cdc42 complex. Kind of test: In vitro activity of activated Par complex (data not shown). It counts as biochemical.
Test [4] concerns the target T2, human PKC-iota kinase domain, primed active form (PKCιKD-2P) (human, UniProt P41743 248-596, phosphothreonine at 412 and 564 (pT412, pT564)).
T2 sequence (looked up): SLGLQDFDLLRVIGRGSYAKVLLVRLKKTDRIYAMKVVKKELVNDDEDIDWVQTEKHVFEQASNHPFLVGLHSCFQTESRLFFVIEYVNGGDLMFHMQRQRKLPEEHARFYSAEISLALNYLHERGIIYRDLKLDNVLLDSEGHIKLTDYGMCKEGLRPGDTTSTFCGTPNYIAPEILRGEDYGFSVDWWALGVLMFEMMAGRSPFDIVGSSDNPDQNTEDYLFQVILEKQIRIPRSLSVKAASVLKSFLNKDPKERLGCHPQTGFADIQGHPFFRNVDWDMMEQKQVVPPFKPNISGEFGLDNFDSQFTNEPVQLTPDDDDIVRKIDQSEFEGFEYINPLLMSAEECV
Kind of test: cell-based or functional assay.

Test [5] deals with T3, human PKC-iota kinase domain, primed active form (PKCιKD-2P) (human, UniProt P41743 248-596, phosphothreonine at 412 and 564 (pT412, pT564)).
T3 chain: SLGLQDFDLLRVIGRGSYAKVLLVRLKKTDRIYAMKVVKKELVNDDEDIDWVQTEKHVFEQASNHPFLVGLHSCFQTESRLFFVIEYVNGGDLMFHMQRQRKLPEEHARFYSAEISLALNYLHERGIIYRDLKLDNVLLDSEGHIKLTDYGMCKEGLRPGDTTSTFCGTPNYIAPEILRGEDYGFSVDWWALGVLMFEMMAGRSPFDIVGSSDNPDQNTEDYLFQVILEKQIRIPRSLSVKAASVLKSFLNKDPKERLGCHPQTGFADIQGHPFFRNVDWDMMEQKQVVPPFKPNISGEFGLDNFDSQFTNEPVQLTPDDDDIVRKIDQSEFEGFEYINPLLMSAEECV
Kind of test: FP.

Test [6] deals with T2, human PKC-iota kinase domain, primed …. Put plainly: fluorescence polarisation; fluorescence anisotropy of fluorescein-labelled peptide with PKCι kinase domain; Safire2 plate reader; anisotropy normalised, KD by non-linear regression; triplicate, at least three independent protein preparations. The note with it: both partners purified.
The target in test [7] is T3, human PKC-iota kinase domain, primed …. Put plainly: FP.
For test [8], the target named is T4, human PKC-iota kinase domain, partially primed low-activity form (PKCιKD-1P) (human, UniProt P41743 248-596, partially primed: one of the two priming sites pT412 and pT564 phosphorylated).
T4 chain: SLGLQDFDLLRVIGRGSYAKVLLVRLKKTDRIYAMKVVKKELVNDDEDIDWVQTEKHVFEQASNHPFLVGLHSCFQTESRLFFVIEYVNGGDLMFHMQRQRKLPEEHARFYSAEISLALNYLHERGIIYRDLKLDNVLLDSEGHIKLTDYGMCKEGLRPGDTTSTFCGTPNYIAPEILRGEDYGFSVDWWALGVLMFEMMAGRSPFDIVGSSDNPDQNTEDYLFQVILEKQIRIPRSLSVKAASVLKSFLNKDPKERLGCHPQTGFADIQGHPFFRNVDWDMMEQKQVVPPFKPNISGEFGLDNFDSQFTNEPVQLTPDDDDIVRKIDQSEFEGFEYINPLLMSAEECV
Kind of test: FP.

With “FKRQGSVRRR [F-X-Rshort peptide, artificial PKCι substrate resembling the aPKC consensus motif of Nishikawa et al]”, in test [1], the “phosphorylation as substrate by PKCι in vitro (in words)” value was “efficient PKCι substrate”. Also, the “inhibition of PKCι catalytic activity in vitro (in words)” value in [2] was “does not inhibit”.

As for “Par3 CR3, 816-834 (from UniProt Q8TEW0) phospho-S827 Par3CR3 peptide”, in [3], the fold change result is “weaker”.

Consider `CSCC[C@H](NC(=O)[C@H](CO)NC(=O)[C@H](CCC(N)=O)NC(=O)[C@H](CCCNC(=N)N)NC(=O)CNC(=O)[C@H](Cc1ccccc1)NC(=O)CNC(=O)[C@H](CCC(=O)O)NC(=O)[C@H](CCCNC(=N)N)NC(=O)[C@H](CCC(N)=O)NC(=O)[C@H](Cc1ccccc1)NC(=O)[C@H](C)NC(=O)[C@@H](N)CC(C)C)C(=O)N[C@@H](CO)C(=O)N[C@@H](CCC(=O)O)C(=O)N[C@@H](CCCCN)C(=O)N[C@@H](CCCNC(=N)N)C(=O)N[C@H](C(=O)N[C@@H](CCCCN)C(=O)O)[C@@H](C)O` [Par3CR3] (H-LAFQREGFGRQSMSEKRTK-OH; N-terminus and C-terminus assumed), for which the “inhibition of activated Par complex (in words)” value in the test with Par6-PKCι-Cdc42 complex is “potently inhibited”.

On to “Kibra-derived peptide: Kibra-derived peptide (residues 919–978) with F-X-R motif anchor and K-R inhibitory motif (LRGSTIIRSKTFSPGPQSQYVCRLNRSDSDSSTLSKKPPFVRNSLERRSVRMKRPSSVKS)”, for which the “inhibition of PKCι catalytic activity in vitro (in words)” value in [2] was “potently inhibit”.

B1: human Par3 conserved region 3 peptide, residues 816-834 (Par3CR3) (peptide, UniProt Q8TEW0 816-834, looked up)
peptide: LAFQREGFGRQSMSEKRTK
modifications: also: fluorescein label (position not given here)
notes: also called wild-type Par3CR3; source: synthetic peptide
Turning to B1, the “apparent IC50 of the block of phosphorylation of a model substrate peptide by PKCιKD-2P, in vitro kinase assay” value in [4] stood at 0.45 µM. Further, the Kd in [5] turned out to be 730 nM; in [6] it was 470 nM; in [7], 410 nM; in [8] it was 53.6 µM.

Take LAFQREGFGRQAMSEKRTK (peptide, UniProt Q8TEW0 816-834, looked up, also: fluorescein label (position not given here), source: synthetic peptide) [Par3CR3 S827A mutant peptide]: the Kd came to 690 nM in test [5] and 970 nM in [6].

As to LAFQREGFGRQSMSEAATK (also: fluorescein label (position not given here)) [Par3CR3 A-A-T mutant peptide (K-R-T to A-A-T, site 3 inhibitory arm)], in [4], the “fold increase of the apparent kcat of Par3CR3 phosphorylation by PKCιKD-2P, in vitro kinase assay” value is 18 fold. The Kd in test [5] turned out to be 424000 nM.
